These are literature values, as cited in patent US20200102349A1, “PEPTIDE REAGENTS AND METHODS FOR DETECTION AND TARGETING OF DYSPLASIA, EARLY CANCER AND CANCER” (THE REGENTS OF THE UNIVERSITY OF MICHIGAN, priority 2014, published 2020).

The test system of the series is mouse xenograft tumor that overexpressesed EGFR. Particulars: whole body fluorescence imaging.

B1: Human recombinant EGF: Human recombinant EGF labeled with IRDye 800 CW (NHS ester) (protein, UniProt P01133 23-1207, looked up)
Pro-epidermal growth factor: PQHWSCPEGTLAGNGNSTCVGPAPFLIFSHGNSIFRIDTEGTNYEQLVVDAGVSVIMDFHYNEKRIYWVDLERQLLQRVFLNGSRQERVCNIEKNVSGMAINWINEEVIWSNQQEGIITVTDMKGNNSHILLSALKYPANVAVDPVERFIFWSSEVAGSLYRADLDGVGVKALLETSEKITAVSLDVLDKRLFWIQYNREGSNSLICSCDYDGGSVHISKHPTQHNLFAMSLFGDRIFYSTWKMKTIWIANKHTGKDMVRINLHSSFVPLGELKVVHPLAQPKAEDDTWEPEQKLCKLRKGNCSSTVCGQDLQSHLCMCAEGYALSRDRKYCEDVNECAFWNHGCTLGCKNTPGSYYCTCPVGFVLLPDGKRCHQLVSCPRNVSECSHDCVLTSEGPLCFCPEGSVLERDGKTCSGCSSPDNGGCSQLCVPLSPVSWECDCFPGYDLQLDEKSCAASGPQPFLLFANSQDIRHMHFDGTDYGTLLSQQMGMVYALDHDPVENKIYFAHTALKWIERANMDGSQRERLIEEGVDVPEGLAVDWIGRRFYWTDRGKSLIGRSDLNGKRSKIITKENISQPRGIAVHPMAKRLFWTDTGINPRIESSSLQGLGRLVIASSDLIWPSGITIDFLTDKLYWCDAKQSVIEMANLDGSKRRRLTQNDVGHPFAVAVFEDYVWFSDWAMPSVMRVNKRTGKDRVRLQGSMLKPSSLVVVHPLAKPGADPCLYQNGGCEHICKKRLGTAWCSCREGFMKASDGKTCLALDGHQLLAGGEVDLKNQVTPLDILSKTRVSEDNITESQHMLVAEIMVSDQDDCAPVGCSMYARCISEGEDATCQCLKGFAGDGKLCSDIDECEMGVPVCPPASSKCINTEGGYVCRCSEGYQGDGIHCLDIDECQLGEHSCGENASCTNTEGGYTCMCAGRLSEPGLICPDSTPPPHLREDDHHYSVRNSDSECPLSHDGYCLHDGVCMYIEALDKYACNCVVGYIGERCQYRDLKWWELRHAGHGQQQKVIVVAVCVVVLVMLLLLSLWGAHYYRTQKLLSKNPKNPYEESSRDVRSRRPADTEDGMSSCPQPWFVVIKEHQDLKNGGQPVAGEDGQAADGSMQPTSWRQEPQLCGMGTEQGCWIPVSSDKGSCPQVMERSFHMPSYGTQTLEGGVEKPHSLLSANPLWQQRALDPPHQMELTQ
modifications: Pro-epidermal growth factor IRDye 800CW label
For the molecule B1, the “time of peak signal after injection” value is 2 days.
